Among the data in paper PMC4571291 (2015) are Kd values, retold here.

In experiment [1] the target is T1, actin (UniProt P68135 1-377). The experiment is described as follows: ITC; second site (KD2). (In general: In ITC the heat of successive injections is recorded.)
Experiment [2] deals with T1, actin. Nature of the experiment: ITC; first site (KD1).
For experiment [3], the target named is T1, actin. The experiment is described as follows: ITC.

B1: TL1_(ABS2) (domain or fragment)
chain: VIKPTQYKPVPDEEPNSTDVEETLERIKNNDPKLEEVNLNNIRNIPIPTLKAYAEALKENSYVKKFALANTRADDHVAFAIAIMLKANKTITSLNLDSNHITGKGILAIFRALLQNNTLTELRFHNQRHICGGKTEMEIAKLLKENTTLLKLGYHFELAGPRMTVTNLLSRNMDKQRQKRLQEQRQAQ
As usually defined, the Kd is the concentration at which binding is half-saturated. Regarding B1, the Kd with actin [1] is 130 nM.

B2: Lmod2_(ABS2) (domain or fragment)
chain: NGRNTESPAAIHPCGNPTVIEDALDKIKSNDPDTTEVNLNNIENITTQTLTRFAEALKDNTVVKTFSLANTHADDSAAMAIAEMLKVNEHITNVNVESNFITGKGILAIMRALQHNTVLTELRFHNQRHIMGSQVEMEIVKLLKENTTLLRLGYHFELPGPRMSMTSILTRNMDKQRQKRLQEQKQQE
In the experiment with actin [1], B2 showed a Kd of 1700 nM.

B3: TL2_(ABS2) (domain or fragment)
chain: VIKPTQYKPVPDEEPNSTDVEETLERIKNNDPKLEEVNLNNIRNIPIPTLKAYAEALKENSYVKKFSLANTHADDSAAMAIAEMLKVNEHITNVNVESNFITGKGILAIMRALQHNTVLTELRFHNQRHIMGSQVEMEIVKLLKENTTLLRLGYHFELPGPRMSMTSILTRNMDKQRQKRLQEQKQQE
As to B3, the Kd with actin [2] is 154 nM; in the experiment with actin [1], 600 nM.

B4: Tmod1_(ABS1) (domain or fragment)
chain: MSYRRELEKYRDLDEDEILGALTEEELRTLENELDELDPDNALLPAGLRQKDQTTKAPTGPFKREELLDHLEKQAKEFKDREDLVPYTGEKRGKVWVPKQKPLDPVLESVTLEPELEEALANASDAELCDIAAILGMHTLMSNQQYYQALSSSSIMNKEGLNSVIKPTQYKPVPDEEPNSTDVEETLERIKNNDPKLEEVNLNNIRNIPIPTLKAYAEALKENSYVKKFSIVGTRSNDPVAYALAEMLKENKVLKTLNVESNFISGAGILRLVEALPYNTSLVEMKIDNQSQPLGNKVEMEIVSMLEKNATLLKFGYHFTQQGPRLRASNAMMNNNDLVRKRRLADLTGPIIPKCRSGV
On to B4, for which, in the experiment with actin [3], the Kd is 15000 nM.
